Experiments:
[1] = system: patients with chronic gout refractory to conventional therapy; assay: Open-label extension study; assay type: in vivo, human; settings: KXX 8 mg every 2 weeks
Method: Two cases of congestive heart failure exacerbation occurred during the trials in patients receiving treatment with KXX 8 mg every 2 weeks. No cases were reported in placebo-treated patients. Four subjects had exacerbations of pre-existing congestive heart failure while receiving KXX 8 mg every 2 weeks during the open-label extension study.
Studies were stratified for the presence of tophi. Seventy-one percent (71%) of patients had baseline tophi. All patients were prophylaxed with an oral antihistamine, intravenous corticosteroid and acetaminophen. Patients also received prophylaxis for gout flares with non-steroidal anti-inflammatory drugs (NSAIDs) or colchicine, or both, beginning at least one week before KXX treatment unless medically contraindicated or not tolerated. Patients who completed the randomized clinical trials were eligible to enroll in a 2-year open label extension study.

[2] = system: patients with symptomatic gout; assay: Single-dose, dose-ranging trial: plasma uric acid and plasma uricase activity; assay type: in vivo, human
Excerpt: In some embodiments, patients or subjects of the present disclosure may have blood samples taken for PK analysis during treatment with KXX, either alone, or co-administered with an immunosuppressive agent, such as AZA. Although limited PK results have been reported in subjects receiving pegloticase, and no PK studies have been performed in subjects weighing ≥120 kg, the present disclosure provides PK analysis in patients receiving KXX treatment, either alone or co-administered with an immunosuppressive agent or therapy. Sundy et al. (JAMA 306(7):711-20, 2011) reported results from 24 subjects with refractory gout who received single doses from 0.5 to 12 mg of pegloticase. PK parameters included plasma uricase activity (pUox) and the plasma urate concentration (pUAc). […] It remains uncertain whether body mass affects drug distribution. Since pegloticase is administered as a single dose regardless of body mass, this is important to assess.
The duration of suppression of plasma uric acid appeared to be positively associated with pegloticase dose.

[3] = system: anti-pegloticase antibodies, anti-PEG antibodies; assay: Immunogenicity in clinical trials: antibody incidence and its relation to response and infusion reactions; assay type: in vivo, human
Method: A relationship between the loss of urate-lowering efficacy, incidence of IRs, and high-titer antibody formation was identified in a post-hoc analysis of the pooled data from the Phase 3 studies. […] In one study, 69 (41%) of 169 patients receiving pegloticase developed high titer anti-pegloticase antibodies and subsequently lost response to the drug. In a second study, only 1 of 52 participants with high antibody titers maintained a response to pegloticase (serum urate <6 mg/dL). In addition, 60% participants with high titers developed IR. Anti-pegloticase antibodies were largely directed to the polyethylene glycol (PEG) portion of the molecule and altered the pharmacokinetic clearance of pegloticase, resulting in inhibition of SUA lowering activity. […] In addition, 31 of 52 (60%) patients with titers exceeding 1:2430 developed IRs. […] By preventing the formation of anti-pegloticase antibodies, a tolerizing dose regimen should prevent loss of response to the drug and decrease the incidence of IRs associated with it.
Anti-pegloticase antibodies developed in 92% of patients treated with KXX every 2 weeks, and 28% for placebo. Anti-PEG antibodies were also detected in 42% of patients treated with KXX. High anti-pegloticase antibody titer was associated with a failure to maintain pegloticase-induced normalization of uric acid. The impact of anti-PEG antibodies on patients' responses to other PEG-containing therapeutics is unknown.
There was a higher incidence of infusion reactions in patients with high anti-pegloticase antibody titer: 53% (16 of 30) in the KXX every 2 weeks group compared to 6% in patients who had undetectable or low antibody titers.

[4] = Pharmacokinetics after single intravenous infusions, serum uricase enzyme activity; assay type: in vivo, human; settings: single intravenous infusions of 0.5 mg to 12 mg, 23 patients
Method: Pegloticase levels were determined in serum based on measurements of uricase enzyme activity.

[5] = system: patients with chronic gout refractory to conventional therapy; assay: Infusion reactions with the dosage regimen described herein (stopping at SUA >6 mg/dL); assay type: in vivo, human; settings: dosage regimen as described herein, strict adherence to stopping at serum uric acid greater than 6 mg/dL
Method: Study Design—In order to evaluate a tolerizing regimen of pegloticase (i.e., the main study), an open label, multicenter, 24-week study is performed. Eligible subjects weighing <120 kg receive pegloticase 8 mg intravenously (IV) on a weekly basis (week 1 through week 3—“Tolerizing Period”), followed by 8 mg IV every 2 weeks through week 25 for a total of 14 doses. Subjects weighing ≥120 kg are sequentially assigned to 1 of 3 different loading doses (8, 12, and 16 mg) on Study Day 1, and then receive 8 mg on weeks 2 and 3, followed by 8 mg every 2 weeks through week 25 for a total of 14 doses.
Eligible subjects weighing <120 kg will receive pegloticase 8 mg IV every 2 weeks through week 25 for a total of 13 doses. Subjects will also receive AZA (1.25 mg/kg orally daily for 1 week then 2.5 mg/kg orally daily) beginning 2 weeks prior to the first dose of pegloticase through week 25. Subjects are monitored for efficacy and safety endpoints, including hematology and liver function tests, through week 25. Subjects also have blood drawn for trough pegloticase, anti-pegloticase antibody, and anti-PEG antibody levels prior to each dose after week 1, on weeks 3, 5, 7, 9, 11, 13, 15, 17, 19, 21, 23, and 25; and sampling for trough AZA metabolite levels prior to all doses of pegloticase. […]

[6] = KXX exposure (AUC) by patient weight and age; assay type: in vivo, human
Excerpt: In some embodiments, heavier and/or younger patients may have a higher incidence of anti-KXX antibodies, or may have higher anti-KXX drug titers, than lighter and/or older patients. In other embodiments, lighter and/or older patients may have higher drug loading of KXX than heavier and/or younger patients. In some embodiments, lighter patients may have higher exposures of KXX than heavier patients. For example, in some embodiments, lighter patients may have greater than 2-fold exposure to KXX than heavier patients. In some embodiments, lower drug levels in a patient may result in anti-KXX antibodies. […] In other embodiments, older patients may have higher exposures of KXX than younger patients. For example, in some embodiments, older patients may have greater than 2-fold exposure to KXX than younger patients. […] Thus, in some embodiments, additional 8-mg doses of KXX may be beneficial for younger and/or heavier patients. In other embodiments, younger and/or heavier patients may benefit from one or more loading doses of 16 mg of KXX.

[7] = system: patients with symptomatic gout; settings: after doses of 4 to 12 mg, within 24 to 72 hours, from 11.1±0.6 mg/dL; cited from earlier work

Q: With pegloticase as the substance, how does the “subjects with exacerbations of pre-existing congestive heart failure” value [1] read?
A: Four

Q: What about the “plasma uric acid versus dose” value ([2]; 0.5, 1, 2, 4, 8 or 12 mg, 24 patients) of the same substance?
A: decreased with increasing pegloticase dose or concentrations

Q: And the “duration of sustained decrease in plasma uric acid below 6 mg/dL” value ([2]; single doses of 8 mg and 12 mg, 1-hour intravenous infusion)?
A: more than 300 hours

Q: What about the “patients who developed anti-pegloticase antibodies” value ([3]; KXX every 2 weeks) of the same substance?
A: 92%

Q: What about the “incidence of infusion reactions in patients with high anti-pegloticase antibody titer” value ([3]; KXX every 2 weeks group, 16 of 30) of the same substance?
A: 53%

Q: What about the “incidence of infusion reactions in patients with undetectable or low antibody titers” value ([3]; human, in vivo) of the same substance?
A: 6%

Q: And the “patients with anti-PEG antibodies detected” value ([3]; patients treated with KXX)?
A: 42%

Q: And the “maximum serum concentrations of pegloticase versus dose” value [4]?
A: increased in proportion to the dose administered

Q: What about the “infusion reactions that occurred” value [5] of the same substance?
A: only a single infusion reaction occurred

Q: And the “mean area under the curve (AUC)” value ([6]; heavier patients)?
A: about 4.04 mg/L

Q: And the “exposure to KXX, lighter versus heavier patients” value ([6]; human, in vivo)?
A: greater than 2 fold

Q: And the “exposure to KXX, older versus younger patients” value ([6]; human, in vivo)?
A: greater than 2 fold

Q: What about the “mean area under the curve (AUC)” value ([6]; lighter patients) of the same substance?
A: about 8.92 mg/L

Q: What about the “mean area AUC” value ([6]; older patients) of the same substance?
A: about 8.86 mg/L

Q: And the “mean area AUC” value ([6]; younger patients)?
A: about 3.93 mg/L

Q: And the “plasma urate concentration (pUAc), mean±SD” value [7]?
A: 1.0±0.5 mg/dL

— patent publication US12121566B2, “Methods for treating gout” (Horizon Therapeutics USA, Inc., priority 2019, dated 2024)
